The target of data set [1] is T1, eIF4E (untagged, co-expressed with p20);His6x-p20 WT (Saccharomyces cerevisiae;Saccharomyces cerevisiae) (UniProt P07260+P12962).
T1 sequence 1: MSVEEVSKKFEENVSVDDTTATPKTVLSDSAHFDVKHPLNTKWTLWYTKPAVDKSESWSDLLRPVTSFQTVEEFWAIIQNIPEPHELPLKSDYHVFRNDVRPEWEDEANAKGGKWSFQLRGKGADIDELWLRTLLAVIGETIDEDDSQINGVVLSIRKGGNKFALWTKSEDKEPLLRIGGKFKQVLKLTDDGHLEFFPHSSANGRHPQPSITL
T1 sequence 2: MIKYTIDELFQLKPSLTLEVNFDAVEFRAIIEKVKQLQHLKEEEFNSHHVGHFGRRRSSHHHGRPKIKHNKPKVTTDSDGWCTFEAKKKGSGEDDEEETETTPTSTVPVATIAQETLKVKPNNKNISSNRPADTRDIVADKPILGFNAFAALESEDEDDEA
The data set can be described thus: MST. The following applies: 5' m7GpppG cap (Vaccinia Capping System), Buffer A: 10 mM sodium phosphate pH 7.5, 100 mM NaCl, 2.5 mM MgCl2, 1 mM DTT, 0.05% NP40, MST at 25 C (proteins for capped RNA MST RED-tris-NTA labeled in …).

Data set [2] addresses T2, His6x-eIF4E;p20 N-terminal 18aa peptide (Saccharomyces cerevisiae;Saccharomyces cerevisiae) (UniProt P07260+P12962).
T2 sequence 1: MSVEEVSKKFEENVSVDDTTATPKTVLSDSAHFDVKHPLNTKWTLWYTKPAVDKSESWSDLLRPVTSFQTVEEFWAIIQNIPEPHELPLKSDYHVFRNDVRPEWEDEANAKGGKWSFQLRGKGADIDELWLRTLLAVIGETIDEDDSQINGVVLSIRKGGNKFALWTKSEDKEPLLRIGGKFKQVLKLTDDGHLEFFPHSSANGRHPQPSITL
T2 sequence 2: MIKYTIDELFQLKPSLTL
The data set can be described thus: MST. The following applies: equimolar 18aa p20 peptide; 5' m7GpppG cap (Vaccinia Capping System); Buffer A: 10 mM sodium phosphate pH 7.5, 100 mM NaCl, 2.5 mM MgCl2, 1 mM DTT, 0.05% NP40; MST at 25 C (proteins for capped RNA MST RED-tris-NTA labeled in …).

Data set [3] deals with T3, eIF4E (untagged, co-expressed with p20);His6x-p20 6x mutant R55L;R56L;R57L;H60L;H61L;H62L (Saccharomyces cerevisiae;Saccharomyces cerevisiae) (UniProt P07260+P12962).
T3 sequence 1: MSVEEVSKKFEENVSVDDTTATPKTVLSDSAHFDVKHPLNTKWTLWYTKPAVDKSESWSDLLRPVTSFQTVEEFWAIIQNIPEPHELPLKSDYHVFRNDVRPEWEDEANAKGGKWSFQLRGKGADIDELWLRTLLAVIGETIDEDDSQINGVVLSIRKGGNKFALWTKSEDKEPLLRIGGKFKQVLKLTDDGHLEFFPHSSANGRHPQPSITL
T3 sequence 2: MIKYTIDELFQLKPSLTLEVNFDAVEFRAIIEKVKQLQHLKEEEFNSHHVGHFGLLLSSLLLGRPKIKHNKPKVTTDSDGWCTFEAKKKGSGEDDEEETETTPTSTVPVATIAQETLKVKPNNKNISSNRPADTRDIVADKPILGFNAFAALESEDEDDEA
The data set can be described thus: MST. The following applies: 5' m7GpppG cap (Vaccinia Capping System); Buffer A: 10 mM sodium phosphate pH 7.5, 100 mM NaCl, 2.5 mM MgCl2, 1 mM DTT, 0.05% NP40; MST at 25 C (proteins for capped RNA MST RED-tris-NTA labeled in …).

Data set [4] concerns the target T1, eIF4E (untagged, co-expressed with p20);His6x-p20 WT (Saccharomyces cerevisiae;Saccharomyces cerevisiae). The data set can be described thus: EMSA. The following applies: 5' m7GpppG cap (Vaccinia Capping System); Buffer A: 10 mM sodium phosphate pH 7.5, 100 mM NaCl, 2.5 mM MgCl2, 1 mM DTT, 0.05% NP40; MST at 25 C (proteins for capped RNA MST RED-tris-NTA labeled in …). On the technique in general: A gel shift assay detects complexes by their altered migration in electrophoresis.

For data set [5], the target named is T3, eIF4E (untagged, co-expressed with p20);His6x-p20 6x mutant R55L;R56L;R57L;H60L;H61L;H62L (Saccharomyces cerevisiae;Saccharomyces cerevisiae). The data set can be described thus: EMSA. To be noted: 5' m7GpppG cap (Vaccinia Capping System); Buffer A: 10 mM sodium phosphate pH 7.5, 100 mM NaCl, 2.5 mM MgCl2, 1 mM DTT, 0.05% NP40; MST at 25 C (proteins for capped RNA MST RED-tris-NTA labeled in …).

Data set [6] addresses T4, eIF4E (untagged, co-expressed with p20);His6x-p20 WT (Saccharomyces cerevisiae;Saccharomyces …, UniProt P07260;P12962 1-213;1-161, |).
T4 sequence 1: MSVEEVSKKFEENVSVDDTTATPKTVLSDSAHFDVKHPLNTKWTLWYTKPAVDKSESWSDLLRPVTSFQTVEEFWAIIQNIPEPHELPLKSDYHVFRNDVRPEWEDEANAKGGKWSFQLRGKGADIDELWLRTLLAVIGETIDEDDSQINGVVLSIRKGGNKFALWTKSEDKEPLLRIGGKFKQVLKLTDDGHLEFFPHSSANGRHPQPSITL
T4 sequence 2: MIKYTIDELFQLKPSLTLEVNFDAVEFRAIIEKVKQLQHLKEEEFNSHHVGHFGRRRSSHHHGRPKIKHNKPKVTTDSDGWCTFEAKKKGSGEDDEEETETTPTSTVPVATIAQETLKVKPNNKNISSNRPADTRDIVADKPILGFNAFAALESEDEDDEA
The data set can be described thus: EMSA; Buffer A: 10 mM sodium phosphate pH 7.5, 100 mM NaCl, 2.5 mM MgCl2, 1 mM DTT, 0.05% NP40; MST at 25 C (proteins for capped RNA MST RED-tris-NTA labeled in buffer B: 20 mM HEPES-KOH pH 7.5, 50 mM NaCl, 1 mM DTT); EMSA 1.5% agarose, 1x TBE, temperature not stated. To be noted: protein: recombinant;recombinant; tags: ;N-terminal His6x; copies: 1;1; label: 3' FAM.

Data set [7] deals with T5, eIF4E (untagged, co-expressed with p20);His6x-p20 6x mutant (Saccharomyces cerevisiae;Saccharomyces …, UniProt P07260;P12962 1-213;1-161, |R55L;R56L;R57L;H60L;H61L;H62L).
T5 sequence 1: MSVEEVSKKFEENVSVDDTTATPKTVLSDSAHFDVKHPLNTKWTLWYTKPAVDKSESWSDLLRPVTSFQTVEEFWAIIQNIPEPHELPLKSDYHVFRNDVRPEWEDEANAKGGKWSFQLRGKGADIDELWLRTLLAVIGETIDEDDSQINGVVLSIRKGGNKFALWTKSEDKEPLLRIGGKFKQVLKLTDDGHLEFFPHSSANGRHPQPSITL
T5 sequence 2: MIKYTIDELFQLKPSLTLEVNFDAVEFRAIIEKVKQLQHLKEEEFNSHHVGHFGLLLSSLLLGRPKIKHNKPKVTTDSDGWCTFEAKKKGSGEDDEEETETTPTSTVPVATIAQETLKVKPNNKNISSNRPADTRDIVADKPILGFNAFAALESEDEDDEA
The data set can be described thus: MST; Buffer A: 10 mM sodium phosphate pH 7.5, 100 mM NaCl, 2.5 mM MgCl2, 1 mM DTT, 0.05% NP40; MST at 25 C (proteins for capped RNA MST RED-tris-NTA labeled in buffer B: 20 mM HEPES-KOH pH 7.5, 50 mM NaCl, 1 mM DTT); EMSA 1.5% agarose, 1x TBE, temperature not stated. The following applies: protein: recombinant;recombinant; tags: ;N-terminal His6x; copies: 1;1; label: 3' FAM.

For data set [8], the target named is T4, eIF4E (untagged, co-expressed with …). Described as above. The following applies: protein: recombinant;recombinant; tags: ;N-terminal His6x; copies: 1;1; label: 3' FAM.

Consider two molecules from article PMC5928113, “Properties of the ternary complex formed by yeast eIF4E, p20 and mRNA” (Scientific Reports, 2018).

For the molecule “GGGAACAAAAGCUGGUAAUCAAGAAUUACAAGAAACAAAAAUUCAAGUAAAUAACAGAUAAUAC [capped SSA1 5'UTR RNA, 64 nt]”, the Kd in data set [1] came out at 44.9 nM; in data set [1] (control of the 6x mutant experiment), 46.9 nM; in data set [2], 211 nM; in data set [3], 424 nM; in data set [4], 64.9 nM; in data set [5], 285 nM.

B1: uncapped SSA1 5'UTR RNA, 40 nt (ssRNA)
RNA: GUAUUACAAGAAACAAAAAUUCAAGUAAAUAACAGAUAAU
On to B1, for which the Kd stood at 8800 nM in data set [6], 35500 nM in data set [7] and 6240 nM in data set [8].

Broadly, the Kd is the constant that tells how readily two partners part at equilibrium.
